Data from the supplement of paper PMC10567573.
± gives the standard deviation.

Experiment: protein stability index of a GFP-peptide fusion (GPS, HEK-293T) (PSI 1-6); higher = more stable
Conditions: c terminus: a fixed tail appended
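Further: 24-mer peptide tiles fused after GFP, lentivirally expressed, FACS-sorted into six equal bins by GFP/DsRed ratio, decoded by Illumina sequencing, PSI is the read-weighted mean bin number.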

Sequence	protein stability index (treatment: DMSO)	protein stability index (treatment: MLN4924 1 uM, 8 h)
TLVDEGDLYNWEVAIFGPPNTYYE [CDC34]	2.33 ± 0.38	2.8 ± 0.26
VGCKGSKAGIEQEGYWLPGDEISI [ZMYND11]	3.18 ± 0.32	3.13 ± 0.31
PPPPPNEINPPPHTMEEEEDDDWG [EIF5]	5.48 ± 0.17	5.61 ± 0.22
NEDGPSSENLEEETENIIAANHWV [TRIP13]	5.08 ± 0.31	5.42 ± 0.23
SWVDDTPFNKVQSARFWIPGEPNN [CD207]	2.44 ± 0.15	2.51 ± 0.45
IYLATSSSKFYDLFLMECEESPNG [RHOBTB1]	2.66 ± 1.7	2.71 ± 0.98
PKRLRCWEEEEDHEKERPEHKSLE [FANCE]	5.32 ± 0.17	5.37 ± 0.33
AERLGVTFFEVSPLCNFNITESFT [RAB40B]	2.13 ± 0.15	2.22 ± 0.16
GPAGPYLLSKKGALQSRAAQRHRG [PLEKHN1]	4.16 ± 0.48	3.98 ± 0.21
RLRGLLRVLRGRPGAGSRRRGRMA [FBXO33]	2.6 ± 0.61	3.14 ± 0.69
EKAAALERQLKVMASDHREALLDR [LRRC45]	4.41 ± 0.17	4.49 ± 0.46
QREEVEERMWAAIQSWDINSRRNI [ZER1]	3.75 ± 0.36	3.69 ± 0.29
QRDEQLRALQERLGQQQRDMRRDE [FBF1]	5.39 ± 0.28	5.33 ± 0.31
DGIDPFPLLMNRQRVPKVLVENAK [EFHC1]	3.77 ± 0.24	3.97 ± 0.22
CGDELPWTLQRRLTRLRTASGHEP [PLEKHN1]	2.68 ± 0.12	2.7 ± 0.34
LIKAGADIELGCSTPLMEAAQEGH [ANKRD17]	4.21 ± 0.57	4.14 ± 0.35
AEDLGNLWENTRFTDCSFFVRGQE [SPOPL]	3.69 ± 0.32	3.74 ± 0.24
QSSQRMRQNLKLLVEETSCQQNMI [CEP70]	3.65 ± 0.16	3.66 ± 0.16
MQIEFIKQGSMNFRFIPVLFPNAK [TRAF3IP2]	2.96 ± 0.71	2.45 ± 0.58
ATFNCLNKRLAKYRMRNVHPKPKL [CLCN6]	2.56 ± 0.15	2.8 ± 0.27
YRGTLKRQPAFDTFDGSLFAVFPS [ETS2]	2.31 ± 0.42	2.08 ± 0.14
QLLLHNTVIFYGADSEQADIARML [ZMYND11]	2.28 ± 0.089	2.3 ± 0.13

Sequence	protein stability index (treatment: DMSO)	protein stability index (treatment: MLN4924 1 uM, 8 h)
ALDEAAAALTRMRAESTANAGQSD [ANKRD17]	5.49 ± 0.17	5.36 ± 0.25
FYFENLWSRNSKPVHTTILNPHIH [CAMK2A]	2.33 ± 0.51	2.5 ± 0.45
LLHGLNLLWRKQLFCDVTLTAQGQ [KLHL14]	3.3 ± 0.17	2.88 ± 0.53
VAQGPFDSFVVQYEDTNGQPQALL [TNXB]	3.43 ± 0.44	3.16 ± 0.46
ASEFLEQSMSQTRELLLDGGYLQR [RSPH3]	3.58 ± 0.43	3.55 ± 0.51
SGKWTFQRDSKRWSRLEEFDVFSP [DLC1]	2.46 ± 0.28	2.53 ± 0.34
QDTELPKAEECDTITLNCPRNSDM [EDARADD]	5.32 ± 0.29	5.42 ± 0.27
EETGSRFHNCLIQLYCEKVQGLMK [VPS39]	2.48 ± 0.45	2.45 ± 0.5
ITVGLVFLCLQYRLRGKLRAEIEN [MOG]	3.18 ± 0.42	3.29 ± 0.33
PPGGSGSEPYKLLPGAVATIVKPL [HNF4A]	3.59 ± 0.11	3.58 ± 0.18
KMDFKTNILLKNLVTIARKASLWQ [TRIM43]	2.7 ± 0.49	2.62 ± 0.92
EPMWSGSTMRRMALRPTAFSGCLN [EMID1]	2.82 ± 0.27	2.79 ± 0.16
VQRTQSVPVRRPARRRQSAGPWPR [RASAL3]	4.55 ± 0.26	4.48 ± 0.096
VQRLTSRAARDYKIQNHGHRVLQR [FCHSD1]	3.33 ± 0.08	3.44 ± 0.1
GRSNAPITAPTEVEVMDETNCQKV [CSNK1G3]	5.55 ± 0.15	5.59 ± 0.13
SSARIPKCPWMEGGEMSPQVETSI [INTS4]	3.9 ± 0.14	4.12 ± 0.1
DGEGAGPGEQGGGKLVLSSLPKRL [ESRRA]	4.94 ± 0.14	4.68 ± 0.15
ADIPSVAFSSRLGGSRGAPGLLMA [DCAF4]	2.83 ± 0.2	2.78 ± 0.51
KMTPVKNYQAHQSRVTMILFVLEL [WDFY2]	3.19 ± 0.39	2.88 ± 0.5
KYQANITETQRLGLAMALEPNTTF [FANCE]	3.36 ± 0.17	3.4 ± 0.15
YYIPLVELVPHPETAPTTVDRTHA [CRYL1]	3.06 ± 0.28	3.1 ± 0.26
QEGWIHHLARHAVACFLTRGDLWI [CRY1]	3.05 ± 0.48	2.89 ± 0.44
